Reference: US20120316071A1

How the values were obtained:
[1] = biological target: Recombinant Human DLL4 (R&D Systems Cat#1506-D4/CF) (human) (UniProt Q9NR61); test: ECL multispot (MSD), 20 nM Fab
[2] = biological target: rHuman CD44/Fc Chimera, CF (R&D Systems Cat#3660-CD) (human) (UniProt P16070); test: ECL multispot (MSD), 20 nM Fab
[3] = biological target: rHuman ErbB2/Fc Chimera, CF (R&D Systems Cat#1129-ER) (human) (UniProt P04626); test: ECL multispot (MSD) binding assay, antigen spotted on plate, Fab in solution; blank spot 240
[4] = biological target: rHuman EGF R/Fc Chimera, CF (R&D Systems Cat#344-ER) (human) (UniProt P00533); test: as above
[5] = biological target: rHuman Notch-1/Fc Chimera, CF (R&D Systems Cat#3647-TK) (human) (UniProt P46531); test: as above
[6] = biological target: rHuman HGF R/c-MET/Fc Chimera, CF (R&D Systems Cat#358-MT/CF) (human) (UniProt P08581); test: as above
[7] = biological target: rHuman IGF-1 sR, CF (R&D Systems Cat#391-GR) (human) (UniProt P08069); test: as above
[8] = biological target: rHuman CD44/Fc Chimera, CF (R&D Systems Cat#3660-CD) (human) (UniProt P16070); test: as above
[9] = biological target: rHuman P-Cadherin/Fc Chimera, CF (R&D Systems Cat#861-PC) (human) (UniProt P22223); test: as above
[10] = biological target: rHuman IGF-1 sR (insulin-like growth factor-1 soluble receptor) (human) (UniProt P08069); test: ECL (MSD) multispot assay, antigen spotted; blank spot of this row 424
[11] = biological target: rHuman HGF R/c-MET/Fc Chimera (human) (UniProt P08581); test: as above
[12] = biological target: rHuman ErbB2/Fc Chimera, CF (R&D Systems Cat#1129-ER) (human) (UniProt P04626); test: ECL multispot (MSD) binding assay, antigen spotted on plate, Fab in solution; blank spot 424
[13] = biological target: rHuman EGF R/Fc Chimera, CF (R&D Systems Cat#344-ER) (human) (UniProt P00533); test: as above
[14] = biological target: rHuman Notch-1/Fc Chimera, CF (R&D Systems Cat#3647-TK) (human) (UniProt P46531); test: as above
[15] = biological target: rHuman HGF R/c-MET/Fc Chimera, CF (R&D Systems Cat#358-MT/CF) (human) (UniProt P08581); test: as above
[16] = biological target: rHuman IGF-1 sR, CF (R&D Systems Cat#391-GR) (human) (UniProt P08069); test: as above
[17] = biological target: rHuman CD44/Fc Chimera, CF (R&D Systems Cat#3660-CD) (human) (UniProt P16070); test: as above
[18] = biological target: rHuman P-Cadherin/Fc Chimera, CF (R&D Systems Cat#861-PC) (human) (UniProt P22223); test: as above
[19] = biological target: rHuman ErbB2/Fc Chimera, CF (R&D Systems Cat#1129-ER) (human) (UniProt P04626); test: ECL multispot (MSD) binding assay, antigen spotted on plate, Fab in solution; blank spot 213
[20] = biological target: rHuman EGF R/Fc Chimera, CF (R&D Systems Cat#344-ER) (human) (UniProt P00533); test: as above
[21] = biological target: rHuman Notch-1/Fc Chimera, CF (R&D Systems Cat#3647-TK) (human) (UniProt P46531); test: as above
[22] = biological target: rHuman HGF R/c-MET/Fc Chimera, CF (R&D Systems Cat#358-MT/CF) (human) (UniProt P08581); test: as above
[23] = biological target: rHuman IGF-1 sR, CF (R&D Systems Cat#391-GR) (human) (UniProt P08069); test: as above
[24] = biological target: rHuman CD44/Fc Chimera, CF (R&D Systems Cat#3660-CD) (human) (UniProt P16070); test: as above
[25] = biological target: rHuman P-Cadherin/Fc Chimera, CF (R&D Systems Cat#861-PC) (human) (UniProt P22223); test: as above
[26] = biological target: rHuman HGF R/c-MET/Fc Chimera, CF (R&D Systems Cat#358-MT/CF) (human) (UniProt P08581); test: ECL multispot (MSD) binding assay, antigens spotted on plate, 20 nM Fab
[27] = biological target: rHuman CD44/Fc Chimera, CF (R&D Systems Cat#3660-CD) (human) (UniProt P16070); test: ECL (MSD) multispot binding assay, antigen spotted on plate, 20 nM Fab
[28] = biological target: rHuman Notch-1/Fc Chimera, CF (R&D Systems Cat#3647-TK) (human) (UniProt P46531); test: ECL multispot (MSD) binding assay, antigens spotted on plate, 20 nM Fab
[29] = biological target: rHuman IGF-1 sR, (IGF-1 sR), CF (R&D Systems Cat#391-GR) (human) (UniProt P08069); test: as above
[30] = biological target: Recombinant Human DLL4 (R&D Systems Cat#1506-D4/CF) (human) (UniProt Q9NR61); test: as above
[31] = biological target: rHuman CD44/Fc Chimera, CF (R&D Systems Cat#3660-CD) (human) (UniProt P16070); test: as above
[32] = biological target: rHuman ErbB2/Fc Chimera, CF (R&D Systems Cat#1129-ER) (human) (UniProt P04626); test: ECL multispot (MSD), 20 nM Fab
[33] = biological target: rHuman EGF R/Fc Chimera, CF (R&D Systems Cat#344-ER) (human) (UniProt P00533); test: ECL multispot (MSD), 20 nM Fab
[34] = biological target: rHuman HGF R/c-MET/Fc Chimera, CF (R&D Systems Cat#358-MT/CF) (human) (UniProt P08581); test: ECL (MSD) multispot binding assay, antigen spotted on plate, 20 nM Fab
[35] = biological target: rHuman P-Cadherin/Fc Chimera, CF (R&D Systems Cat#861-PC) (human) (UniProt P22223); test: as above
[36] = biological target: rHuman Notch-1/Fc Chimera, CF (R&D Systems Cat#3647-TK) (human) (UniProt P46531); test: ECL multispot (MSD), 20 nM Fab
[37] = biological target: rHuman Erythropoietin R/Fc Chimera, CF (R&D Systems Cat#963-ER) (human) (UniProt P19235); test: ECL (MSD) multispot binding assay, antigen spotted on plate, 20 nM Fab
[38] = biological target: rHuman Erythropoietin R/Fc Chimera (human) (UniProt P19235); test: ECL (MSD) multispot assay, antigen spotted; blank spot of this row 236
[39] = biological target: rHuman IGF-1 sR (insulin-like growth factor-1 soluble receptor) (human) (UniProt P08069); test: as above
[40] = biological target: rHuman Notch-1/Fc Chimera (human) (UniProt P46531); test: as above
[41] = biological target: rHuman HGF R/c-MET/Fc Chimera (human) (UniProt P08581); test: as above
[42] = biological target: rHuman CD44/Fc Chimera (human) (UniProt P16070); test: as above
[43] = biological target: rHuman Erythropoietin R/Fc Chimera (human) (UniProt P19235); test: ECL (MSD) multispot assay, antigen spotted; blank spot of this row 284
[44] = biological target: rHuman IGF-1 sR (insulin-like growth factor-1 soluble receptor) (human) (UniProt P08069); test: as above
[45] = biological target: rHuman HGF R/c-MET/Fc Chimera (human) (UniProt P08581); test: as above
[46] = biological target: rHuman Erythropoietin R/Fc Chimera (human) (UniProt P19235); test: ECL (MSD) multispot assay, antigen spotted; blank spot of this row 223
[47] = biological target: rHuman IGF-1 sR (insulin-like growth factor-1 soluble receptor) (human) (UniProt P08069); test: as above
[48] = biological target: rHuman HGF R/c-MET/Fc Chimera (human) (UniProt P08581); test: as above
[49] = biological target: rHuman CD44/Fc Chimera (human) (UniProt P16070); test: as above

Fab VH3-23_IGHD2-21*01>3_IGHJ6*01 H100E/S108P/Y113G (EPG) Y109W & V2-13_IGLJ2*01
ECL signal ratio (column head gives no unit) [1]: 4.3
ECL signal ratio (column head gives no unit) [2]: 2.4

Fab VH5-51_IGHD5-18*01>3_IGHJ4*01 G100K/G104T & V3-4_IGLJ1*01
ECL signal [3]: 1070
ECL signal [4]: 915
ECL signal [5]: 507
ECL signal [6]: 936
ECL signal [7]: 964
ECL signal [8]: 633
ECL signal [9]: 346
ECL signal [10]: 877
ECL signal [11]: 838
ECL signal [12]: 1100
ECL signal [13]: 852
ECL signal [14]: 543
ECL signal [15]: 838
ECL signal [16]: 877
ECL signal [17]: 579
ECL signal [18]: 319
ECL signal [19]: 1100
ECL signal [20]: 768
ECL signal [21]: 437
ECL signal [22]: 867
ECL signal [23]: 781
ECL signal [24]: 540
ECL signal [25]: 226

Fab VH3-23_IGHD2-21*01>3_IGHJ6*01 H100E/S108P/Y113G Y110N & V2-13_IGLJ2*01
ECL multispot signal (ratio to blank; column not labelled) [26]: 2.3

Fab VH3-23_IGHD2-21*01>3_IGHJ6*01 H100E/S108P/Y113G/Y111W & V2-13_IGLJ2*01
ECL signal/blank ratio [27]: 3.4

Fab VH3-23_IGHD2-21*01>3_IGHJ6*01 H100E/S108P/Y113G Y110W & V2-13_IGLJ2*01
ECL multispot signal (ratio to blank; column not labelled) [28]: 3.2
ECL multispot signal (ratio to blank; column not labelled) [29]: 2.3
ECL multispot signal (ratio to blank; column not labelled) [30]: 3.9
ECL multispot signal (ratio to blank; column not labelled) [31]: 2.1

Fab VH3-23_IGHD2-21*01>3_IGHJ6*01 H100E/S108P/Y113G (EPG) Y109L & V2-13_IGLJ2*01
ECL signal ratio (column head gives no unit) [32]: 2.1
ECL signal ratio (column head gives no unit) [33]: 2.2

Fab VH3-23_IGHD2-21*01>3_IGHJ6*01 H100E/S108P/Y113G/Y110R & V2-13_IGLJ2*01
ECL signal/blank ratio [34]: 3.9
ECL signal/blank ratio [35]: 3.3

Fab VH3-23_IGHD2-21*01>3_IGHJ6*01 H100E/S108P/Y113G (EPG) & V2-13_IGLJ2*01
ECL signal ratio (column head gives no unit) [36]: 2.3
ECL signal ratio (column head gives no unit) [1]: 2.3

Fab VH3-23_IGHD2-21*01>3_IGHJ6*01 H100E/S108P/Y113G/Y111E & V2-13_IGLJ2*01
ECL signal/blank ratio [37]: 2.9

Fab VH5-51_IGHD5-18*01>3_IGHJ4*01 G100K/G104T S84V & V3-4_IGLJ1*01
ECL signal [38]: 484
ECL signal [39]: 914
ECL signal [40]: 505
ECL signal [41]: 811
ECL signal [42]: 577

Fab VH5-51_IGHD5-18*01>3_IGHJ4*01 G100K/G104T D109A & V3-4_IGLJ1*01
ECL signal [43]: 612
ECL signal [44]: 967
ECL signal [45]: 846

Fab VH5-51_IGHD5-18*01>3_IGHJ4*01 G100K/G104T S84L & V3-4_IGLJ1*01
ECL signal [46]: 458
ECL signal [47]: 908
ECL signal [48]: 933
ECL signal [49]: 545
